# PMC9837990
# Target: CH31 IgG monoclonal antibody
# Test: SPR
t1/2,Kd,koff,Substance
4.9 min,,,GT6 tetramer (biotinylated eOD-GT6 on streptavidin) (from UniProt P22629 25-183) (complex)
44.4 min,,,GT8 tetramer (biotinylated eOD-GT8 on streptavidin) (from UniProt P22629 25-183) (complex)
,5200 nM,> 0.01 s⁻¹,eOD-GT6-Avi-3C-His (designed binder)
,308 nM,> 0.01 s⁻¹,eOD-GT8_AviHis (designed binder)
